Patent publication US20190322720A1 (PRECISION BIOLOGICS, published 2019)

Key:
[1] = target: T1, MUC5AC truncation construct 1-136 (human, UniProt P98088 3212-4055); assay: immunofluorescence, transfected 293T cells
T1 construct: also called 136 residue construct
T1 sequence: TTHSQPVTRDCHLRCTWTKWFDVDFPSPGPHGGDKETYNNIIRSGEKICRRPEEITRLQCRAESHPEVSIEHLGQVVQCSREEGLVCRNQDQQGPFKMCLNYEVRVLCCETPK
Procedure: (§1) Cells were transiently transfected with 2 μg of MUC5AC constructs of Table 8 with LIPOFECTAMINE®. Cells were grown for about 72 hours, fixed with about 4% PFA in PBS, washed with PBS, permeabilized with about 0.2% […] in PBS and washed with PBS. Cells were then blocked with about 1% BSA in PBS, and about 2 μg/ml NPC-1 antibody was added to sample wells and about 2 μg/ml of an Isotype control was added for 1 hour at room temp. Cells were washed with PBS and second anti human-FITC antibody (1:500) was added to all wells and to the second antibody control wells. Cells were washed and mounted on slides with DAPI hard mount. Cover slides were allowed to sit over night at about 4° C. Slides were visualized with a Nikon Eclipse Ti microscope with an Andor camera. At least 3 random fields were counted per transfection.
(§2) This strategy was used to identify an about 15 amino acid-region that contains a NPC-1 epitope: […] (SEQ ID NO: 37). […] This is a repetitive sequence that also has some changes in it which are also probable scaffold for the binding sites for the NPC-1C antibody. This repetitive sequence and variations can be found in the longer deletions of MUC5AC and MUC5AC itself.

[2] = target: T2, MUC5AC truncation construct 1-85 (human, UniProt P98088 1734-1794); assay: immunofluorescence, transfected 293T cells
T2 construct: also called 85 residue construct
T2 chain: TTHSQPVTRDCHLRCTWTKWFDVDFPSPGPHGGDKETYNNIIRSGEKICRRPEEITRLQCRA
Procedure: as §1, §2

B1: NPC-1C (antibody, V domains shown)
VH: QVQLKESGPDLVAPSQSLSITCTVSGFSLSKFGVNWVRQPPGKGLEWLGVIWGDGSTSYNSGLISRLSISKENSKSQVFLKLNSLQADDTATYYCVKPGGDYWGHGTSVTVSS
VL: QVVLTQSPVIMSASPGEKVTMTCSASSSISYMYWYQQKPGTSPKRWIYDTSKLASGVPARFSGSGSGTSYSLTISNMEAGDAATYYCHQRDSYPWTFGGGTNLEIK
notes: Chimeric antibody with human IgG1 constant regions, made in CHO cells; used plain, biotin- or FITC-labelled, or coupled to beads; also called NEO-101; ensituximab
B1: no binding (tested: about 2 µg/ml) [1]; no binding (tested: about 2 µg/ml) [2].
